In assay [1] the target is 220-kDa ankyrin-B (endogenous, mouse) (mouse (endogenous in mouse heart and brain)). The assay is described as follows: co-IP; detergent-soluble lysates of ankyrin-B+/- mouse heart, doubled amount of input lysate, compared with wild-type heart.
Assay [2] addresses InsP3R purified from bovine brain cerebellum (bovine, UniProt Q9TU34 1-2709, ^125I-labeled in the saturation binding; biotinylated with NHS-LC-biotin in the reconstitution). The assay is described as follows: radioligand binding; saturation binding: increasing concentrations of ^125I-labeled protein with glutathione Sepharose-immobilized GST-ankyrin-B membrane-binding domain, 2 h at 25 °C; binding to GST beads subtracted; Scatchard analysis. As to conditions: both partners purified.

Where only a bound is given, the exact number is not on record here.

As to “Na/Ca exchanger 1 (endogenous, mouse) (from UniProt P70414 33-970) (natural protein)”, the loss of co-immunoprecipitation in ankyrin-B+/- heart against wild-type heart in assay [1] is greater than 60%. The molecule “inositol 1,4,5-trisphosphate receptor (endogenous, mouse) (from UniProt P11881 1-2749)” showed a loss of co-immunoprecipitation in ankyrin-B+/- heart against wild-type heart in assay [1] greater than 60%. For the molecule “Na/K ATPase (endogenous, mouse; isoform not told) (from UniProt Q8VDN2 1-1023) (natural protein)”, the loss of co-immunoprecipitation in ankyrin-B+/- heart against wild-type heart in assay [1] is greater than 60%.

B1: GST-ankyrin-B membrane-binding domain (domain or fragment)
chain: KSDSNASFLRAARAGNLDKVVEYLKGGIDINTCNQNGLNALHLAAKEGHVGLVQELLGRGSSVDSATKKGNTALHIASLAGQAEVVKVLVKEGANINAQSQNGFTPLYMAAQENHIDVVKYLLENGANQSTATEDGFTPLAVALQQGHNQAVAILLENDTKGKVRLPALHIAARKDDTKSAALLLQNDHNADVQSKMMVNRTTESGFTPLHIAAHYGNVNVATLLLNRGAAVDFTARNGITPLHVASKRGNTNMVKLLLDRGGQIDAKTRDGLTPLHCAARSGHDQVVELLLERGAPLLARTKNGLSPLHMAAQGDHVECVKHLLQHKAPVDDVTLDYLTALHVAAHCGHYRVTKLLLDKRANPNARALNGFTPLHIACKKNRIKVMELLVKYGASIQAITESGLTPIHVAAFMGHLNIVLLLLQNGASPDVTNIRGETALHMAARAGQVEVVRCLLRNGALVDARAREEQTPLHIASRLGKTEIVQLLLQHMAHPDAATTNGYTPLHISAREGQVDVASVLLEAGAAHSLATKKGFTPLHVAAKYGSLDVAKLLLQRRAAADSAGKNGLTPLHVAAHYDNQKVALLLLEKGASPHATAKNGYTPLHIAAKKNQMQIASTLLNYGAETNIVTKQGVTPLHLASQEGHTDMVTLLLDKGANIHMSTKSGLTSLHLAAQEDKVNVADILTKHGADQDAHTKLGYTPLIVACHYGNVKMVNFLLKQGANVNAKTKNGYTPLHQAAQQGHTHIINVLLQHGAKPNATTANGNTALAIAKRLGYISVVDTLKVVTEEVTTTTTTITEKHKLNVPETMTEVLDVSDEEGDDTMTGDGGEYLRPEDLKELGDD
Take B1: in assay [2], the affinity, expressed as Kd, was 3 nM.

The values are drawn from publication PMC1287507, “Ankyrin-B Coordinates the Na/K ATPase, Na/Ca Exchanger, and InsP3 Receptor in a Cardiac T-Tubule/SR Microdomain” (PLoS Biology, 2005).
